Results reported in a protein production outcome set (Wang et al. 2014).

assay: label from the status in PepcDB records

Sequence | protein production
MANSASPEQNQNHCSAINNSIPLMQGNLPTLTLSGKIRVTVTFFLFLLSATFNASFLLKLQKWTQKKEKGKKLSRMKLLLKHLTLANLLETLIVMPLDGMWNITVQWYAGELLCKVLSYLKLFSMYAPAFMMVVISLDRSLAITRPLALKSNSKVGQSMVGLAWILSSVFAGPQLYIFRMIHLADSSGQTKVFSQCVTHCSFSQWWHQAFYNFFTFSCLFIIPLFIMLICNAKIIFTLTRVLHQDPHELQLNQSKNNIPRARLKTLKMTVAFATSFTVCWTPYYVLGIWYWFDPEMLNRLSDPVNHFFFLFAFLNPCFDPLIYGYFSL | not failed
MANVLVINFPGEGHINPTLAIISELIRRGETVVSYCIEDYRKKIEATGAEFREFENFLSQINIMERVNEGGSPLTMLSHMIEASERIVTQIVEETKGEQYDYLLYDNHFPVGRIIANVLQLPSISSCTTFAFNQYITFNDEQESRQVDETNPLYQSCLAGMEKWNRQYGMKCNSMYDIMNHPGDITIVYTSKEYQPRSDVFDESYKFVGPSIATRKEVGSFPMEDLKGEKLIFISMGTVFNEQPELYEKCFEAFKGVEATVILAVGKKINISQFENIPNNFKLYNYVPQLEVLQHADVFVTHGGMNSSSEALYYGVPLVVIPVTGDQPLVAKRVNEVGAGIRLNRKELTSELLRETVKEVMYDVTFKENSRKVGESLRNAGGYKRAVDEIFKMKMNSYLKLK | failed
MANVSMEAKGLLILGFPIAATMIAQTLMSLTDLMLVSRLGEKQVAGVSLGIAVYSFGMLFGLGVITAVTPMIAKAYGRKDFNAVSNYTRQGLWVAALVAMPGVIALILTRSILLFLNVEAETANIASDYCVGALMGLPAFLIYVNLRCFLSAIGRPKTTTWIMFLAVPVNYIIGHVLIFGVMDAEGLGITGAGLASSVTRLAILSTVIATLKYGADFKCFSLFENVMNVKPVVVKKIVLLGLPVGVRILLAEGMLPIIALLISTLGTIDLVAHMVAVRLSGVSAVIALGFSSAASTRVAWQVAANNQNGVRVTGYVASALAFGVSALLAMLLIFFPTELVMLLFDIDDAEVLALTSHLLKVVAAYQILNAIQTAVVGSLLGVSDTKIPTCLVLIGNWLVGLASAYGLVVLFEATVTAVWGGLVLGQVFVVVTCLCRFHMKTKALHE | failed
MAPARLRADTGSGEPIIHSTLLYILLAATISGVGSIFGAALLSLTVASRVVERMVSFSVGVLLATALLHSLPEAFESGADTRALFGTLLAGLLGFFLLEKISLLRHSHHHEGDGHHHHHGHDREEAGRSGLTILVGDTFHNFADGIVIAAAFLANPHIGIVTALAIAAHEIPQEVGDFIVLLNAGFSKARAFAFNLLSSLAAIIGGLVGYFLLDQLTGWIPYVLVIASSSFLYIAVSDLMPQMQRKPRLKESAVQVVLVAAGIAAIVFITNGVHEQHGHRHSRTAAGVTSN | failed
MAPEPLSAAGQNLIDTATSVINGIPVSDFYSVASAAISDDGRVFSGVNVYHFNGGPCAELVVLGVAAAAGATKLTHIVAIANEGRGILSPCGRCRQVLADLHPGIKAIVIGKEGPKMVAVEELLPSIYAWDKDYDRI | not failed
MAPIFLEYKVVHDNITYYIIYVFIYNLSLKLVTMYTINPSSHTILNYNVSLEPEQIFSNITGVSTYYSLDGKKILAYEDNNGSIIVAYNGLILKKASNNSVRYLIAANYPGIDNSKFPSLYKLAEISIFDSNIRVLVLGVLLTILSSFILKVMVGRYDKVR | failed
MAPKPVAVDAGHYRGTWLEIGRMPMLLTDGCVAGYSTYRQGKSADEVLVEDGCREGTPQGKLKTINGVGKIEDFASTKAKMRVRYPLLITFNYWVLYKSPDKSWFISANPSTEDVWVYARSVPSKAKLNRMMMKVRELGYDVKKLEFPLEHHHHHH | not failed
MAPLQTPLCSEIGIDHPVVQAPVGSVSTPSLAAAVADAGGLGMLAMSWREADAIRDAYTDAANATDGVVGVNVVLDESTGVLSPSACLDACLDAGAPVVSFSFGDAGPYIDRVHEVGGTVMVTVASAAEARAAVDAGADVVVAQGREAGGHVQSDVTTMSLLPRVADGVPVPVVAAGGLGDGRGLAAALTLDADGGWFGTRFVATEESGAHEAYRQQIVDAPETATRFTDLFDRGWPDQPHRVLETDEVRQQAGADSGGESDGSDPEQIAQMPDGEPISRFADMPPLAGMTGDVEALPHYAGQSTGLAQDVRPAGEVVARLVSDARAALADASAAAE | failed
MAPPTPHLAVRGSDGTLLLHGPPNCQESSAFQRDDRQGRYMTFSNDGTLFAWCNGSQVTVLKVPSGDLVKSFDLPKTTALEFSPLNKVLATWQQYTKTQDNPQGEANLQLWDLQTGACMKAFYQKKMTGWCPSWADDESISVRNVNNELHFFENNNFETIANKLHLQKVSEFALSPGSQPSKVAVYVPGSKGAPSFVRLYQYPNFGGPTCALANKSFFKADKVNMLWNKKATAVLVTASTEVDKTGASYYGEQTLHYVATNGESAVVQLPKNGPIYDVSWSPNSTEFCVVYGFMPAKATVFNNKCESVFDFGTGPRNAAFYSPQGHILVLAGFGNLRGQMEVWDVKKYKQVSKPQAEDTTHFSWCPDGEHIVTATCSPRLRASNGYKIWHYTGTVLYKHETPSGKELWEVLWQPFPAGVFPERAVKYQALPSELGSTEAKPAQAYRPPALRNKPQTASSKLHEEEPPQNMKPGAAGEKQPSKAALKNQKRREAKKAAKQENKPDEAPPPAADPAPVSHVTSSCGDPETDKKIKNLKKKLKAIDELKEQQAAGKVMQKNQLEKMQKEAQLLKELEDLELGL | not failed
MAPQPVIRSKQAEKTINGNQTQVVCTEFSNYIFIVLTQYGKIGTLVSITPDTRSGDISVPMYTSKVLLGKDEPLTHVYAKNVATFVSQESGNRPILLGLSLKDNSAETMKTVKDMIKSCQVW | failed
MAPRQLAAADLAVGQVVAQREIRLDAQAFAQFAALTGDAHPIHYDAGYVQRQGLRAPIAHGLLLVAISALGATPLSAQLHDAMVAMVGVEAVFMRPVYVDETVQCVYRVAQIEHVAKGRSKTTIAVSIHTTDAPPDAARQAHCVVHLTFLLKTHLQGLEHHHHHH | failed
MAQFYSAKRRTTTRQIITVSVNDLDSFGQGVARHNGKTLFIPGLLPQENAEVTVTEDKKQYARAKVVRRLSDSPERETPRCPHFGVCGGCQQQHASVDLQQRSKSAALARLMKHEVSEVIADVPWGYRRRARLSLNYLPKTQQLQMGFRKAGSSDIVDVKQCPILVPQLEALLPKVRACLGSLQAMRHLGHVELVQATSGTLMILRHTAPLSSADREKLECFSHSEGLDLYLAPDSEILETVSGEMPWYDSNGLRLTFSPRDFIQVNAGVNQKMVARALEWLDVEPEDRVLDLFCGMGNFTLPLATQAASVVGVEGVPALVEKGQQNARLNGLQNVTFYHENLEEDVTKQPWAKNGFDKVLLDPARAGAAGVMQQIIKLEPIRIVYVSCNPATLARDSEALLKAGYTIARLAMLDMFPHTGHLESMVLFSRVK | not failed
MAQHTVYFPDAFLTQMREAMPSTLSFDDFLAACQRPLRRSIRVNTLKISVADFLQLTAPYGWTLTPIPWCEEGFWIERDNEDALPLGSTAEHLSGLFYIQEASSMLPVAALFADGNAPQRVMDVAAAPGSKTTQISARMNNEGAILANEFSASRVKVLHANISRCGISNVALTHFDGRVFGAAVPEMFDAILLDAPCSGEGVVRKDPDALKNWSPESNQEIAATQRELIDSAFHALRPGGTLVYSTCTLNQEENEAVCLWLKETYPDAVEFLPLGDLFPGANKALTEEGFLHVFPQIYDCEGFFVARLRKTQAIPALPAPKYKVGNFPFSPVKDREAGQIRQAATGVGLNWDENLRLWQRDKELWLFPVGIEALIGKVRFSRLGIKLAETHNKGYRWQHEAVIALASPDNMNAFELTPQEAEEWYRGRDVYPQAAPVADDVLVTFQHQPIGLAKRIGSRLKNSYPRELVRDGKLFTGNA | not failed
MAQINFEGLRELHDCVNYLLHHCPKTRESLSQQGQEKWTEQVSEASLRMLDICNVSKDVMTLVKHSLQDLQLTLRGNESSDVNEKIAAYNRYKNKLKKETLKCLNCLKNMKGNEGRVAMPIEQNLLFVTEVLKEVRRVVVTMVESLFSLGCIPWLEKRSSKGSLSSIFSIRSSYLLDDEWDETAVQSATTRLEAAEITVVELEIELESIFRRLIQTRVSLLNILTN | failed
MAQKLEAKGGEMGDVWDDGVYENVRKVYVGQAQYGIAFVKFEYVNGSQVVVGDEHGKKTELGVEEFEIDADDYIVYVEGYREKVNDMTSEMITFLSIKTFKGKTSHPIEKRPGVKFVLHGGKIVGFHGRSTDVLHSLGAYVSLSSTIKLLGKWIKVEQKGEGPGLRCSHGIAQVGNKIYSFGGEFTPNQPIDKHLYVFDLETRTWSISPATGDVPHLSCLGVRMVSVGSTLYVFGGRDASRQYNGFYSFDTTTNEWKLLTPVEEGPTPRSFHSMAADEENVYVFGGVSATARLNTLDSYNIVDKKWFHCSTPGDSLTARGGAGLEVVQGKVWVVYGFNGCEVDDVHYYDPVQDKWTQVETFGVRPSERSVFASAAIGKHIVIFGGEIAMDPLAHVGPGQLTDGTFALDTETLQWERLDKFGGEEETPSSRGWTASTTATIDGKKGLVMHGGKAPTNDRFDDLFFYGIDSA | not failed
MAQKMTGALVFDERTDRYDIRFDLNSYYGGLHCGECFDVFVRGKWKPTRIEYGDNWYLVGIRAEDLNGLRVRILEHHHHHH | not failed
MAQKTLLIITDGIGYRKDSDHNAFFHAKKPTYDLMFKTLPYSLIDTHGLSVGLPKGQMGNSEVGHMCIGAGRVLYQDLVKISLSLQNDELKNNPAFLNTIQKSPVVHLMGLMSDGGVHSHIEHFIALALECEKSHKKVCLHLITDGRDVAPKSALTYLKQMQNICNESIQIATISGRFYAMDRDKRFERIELAYHSLMGLNHTPLSPSEYIQSQYDKNITDEFIMPACFKNYCGMQDDESFIFINFRNDRAREIVSALGQKQFSGFKRQVFKKLHIATMTPYDNTFPYPVLFPKESVQNTLAEVVSQHNLTQSHIAETEKYAHVTFFINGGVETPFKNENRVLIQSPKVTTYDLKPEMSAKEVTLAVLEQMKLGTDLIIVNFANGDMVGHTGNFEASVKAVEAVDACLGEILSLAKKLDYAMLLTSDHGNCERMKDENQNPLTNHTAGSVYCFVLGDGVKSIKNGALNNIASSVLKLMGLKAPATMDEPLF | failed
MAQPDREARPQFSHPTRQILTMLIVIGLSGFGVFVAMPRVLPVFQANPYLNGFILLVFIIGVLACFWQVVQLIGSVRWIEDFAAGQEREDTTPPSMLAPLASLLRSRAARMQISSSSTRSILDSVAERIEEEREITRYITNVLIYLGLLGTFFGLATTIPAVVDTIRSLNPQEGEEGLAVFNRLMTGLEAQLGGMGTAFGSSLLGLAGSLIVGLLELFTGHGQNRFYRELEEWLSTITRVGFSSGEEGHSESGAIAGVIDTMVEQMDALHAMFAASEEGRAEISGKLGALVETIAEMNQRQAETEDVTAALDRVAAGQETLIDFLREQGAHDGIDAESRMRLRSIDVQMLRILEEISAGRQESMAELRKDIELLAKALSVPRRPLRGVTRDEG | failed
MAQPLFSLDGQSLITPQSVSNKFPSPHNHNETDRLRIAEAEFAVVINIAVQRFAAGKNLPDAVRWLIGQLHDIRQKFGAAVWQKIIPIIQAHPSATILQQCPFTRWSFEKPRGYSGDAGLIDFIYGHPAVAEEVARSTPLGLNIFEYTINAPGPVAVRERRDTLTRYVDETAVRTGSDTEILAIAAGHLREAEASKALAEGRLKRWVALDQDPESIGSISSQFHGTSVQPINGSVRGLLARKHQIGTFDLIYAAGLYDYLTDKVAIRLTQICMEMLKPGGVFLFANFSDEMADDGYMESYMNWELLQRSEADMWRITNAGATQNAVDKTVWFGANRNIIYSTIRKRS | failed
MAQQFKDYFSEKSDVYRSYRPGYPTELFAWLAGLPARRDAALDCGCGTGQASVALAEHFARVYAVDPSAGQIKSATPHKRVEYRVAPAEETGLPDASVDLVIAAQALHWFDFSRFYAEVRRVARGGAVFAAFTYGLLAIDDEIDRIIGRFYRDVIGPYWPPERAHVDAGYRTLPFPFAEIETPTFAMKAEWDLGHLMGYFETWSAVKEYRRLRGDDPLELVAGDLATAWGDPALVRQVSWPLVLRAGRIE | failed
